Experimental data taken from publication PMC11388069.

What was measured:
[1] = immunoprecipitation, western blot; settings: glycan changed form; control: parental MCF7DOX
[2] = AHA labelling of newly synthesized P-gp; settings: glycan changed form; control: parental MCF7DOX
[3] = immunofluorescence, plasma membrane P-gp; settings: glycan changed form; control: parental MCF7DOX
[4] = proteomics and blot of isolated microvesicles; settings: glycan changed form; control: MCF7DOX-MVs
[5] = NHS-LC-biotin labelled membranous P-gp degradation; settings: glycan changed form; control: parental MCF7DOX

In the case of “P-glycoprotein (P-gp, MDR1): MGAT3 overexpression”, the expression_or_secretion [1] is reported as “decreases”, the “other: new protein synthesis” value [2] is reported as “no change” and the localisation_or_trafficking [3] is reported as “decreases”. The “other: recruitment into microvesicles” value [4] was “decreases” and the degradation_or_half_life [5] was “increases”.
